Literature values in patent US20060193824A1, “Methods for the treatment of infectious and inflammatory airway diseases” (priority 2005, published 2006).

Tests used:
[1] = tested on: respiratory epithelial cells

B1: IL-10: cytokine obtainable from R & D systems (protein, UniProt P22301 19-178, looked up)
Interleukin-10: SPGQGTQSENSCTHFPGNLPNMLRDLRDAFSRVKTFFQMKDQLDNLLLKESLLEDFKGYLGCQALSEMIQFYLEEVMPQAENQDPDIKAHVNSLGENLKTLRLRLRRCHRFLPCENKSKAVEQVKNAFNKLQEKGIYKAMSEFDIFINYIEAYMTMKIRN
For B1, the inflammation (inflammation) is listed as “attenuates excessive inflammation”.

B2: Human neutrophil elastase: Human neutrophil elastase (protein, UniProt P08246 30-267, looked up)
Neutrophil elastase: IVGGRRARPHAWPFMVSLQLRGGHFCGATLIAPNFVMSAAHCVANVNVRAVRVVLGAHNLSRREPTRQVFAVQRIFENGYDPVNLLNDIVILQLNGSATINANVQVAQLPAQGRRLGNGVQCLAMGWGLLGRNRGIASVLQELNVTVVTSLCRRSNVCTLVRGRQAGVCFGDSGSPLVCNGLIHGIASFVRGGCASGLYPDAFAPVAQFVNWIDSIIQRSEDNPCPHPRDPDPASRTH
In the case of B2, the MUC5AC levels [1] is given as “increase MUC5AC levels”.

B3: IL-4: cytokine obtainable from R & D Systems (protein, UniProt P05112 25-153, looked up)
Interleukin-4: HKCDITLQEIIKTLNSLTEQKTLCTELTVTDIFAASKNTTEKETFCRAATVLRQFYSHHEKDTRCLGATAQQFHRHKQLIRFLKRLDRNLWGLAGLNSCPVKEANQSTLENFLERLKTIMREKYSKCSS
For B3, the mucus production (mucus production) is listed as “modulates mucus production”.
